B1: DNA-directed RNA polymerase subunit beta (Bacillus subtilis), P37870 (parent)
chain: MTGQLVQYGRHRQRRSYARISEVLELPNLIEIQTSSYQWFLDEGLREMFQDISPIEDFTGNLSLEFIDYSLGEPKYPVEESKERDVTYSAPLRVKVRLINKETGEVKDQDVFMGDFPIMTDTGTFIINGAERVIVSQLVRSPSVYFSGKVDKNGKKGFTATVIPNRGAWLEYETDAKDVVYVRIDRTRKLPVTVLLRALGFGSDQEILDLIGENEYLRNTLDKDNTENSDKALLEIYERLRPGEPPTVENAKSLLDSRFFDPKRYDLANVGRYKINKKLHIKNRLFNQRLAETLVDPETGEILAEKGQILDRRTLDKVLPYLENGIGFRKLYPNGGVVEDEVTLQSIKIFAPTDQEGEQVINVIGNAYIEEEIKNITPADIISSISYFFNLLHGVGDTDDIDHLGNRRLRSVGELLQNQFRIGLSRMERVVRERMSIQDTNTITPQQLINIRPVIASIKEFFGSSQLSQFMDQTNPLAELTHKRRLSALGPGGLTRERAGMEVRDVHYSHYGRMCPIETPEGPNIGLINSLSSYAKVNRFGFIETPYRRVDPETGKVTGRIDYLTADEEDNYVVAQANARLDDEGAFIDDSIVARFRGENTVVSRNRVDYMDVSPKQVVSAATACIPFLENDDSNRALMGANMQRQAVPLMQPEAPFVGTGMEYVSGKDSGAAVICKHPGIVERVEAKNVWVRRYEEVDGQKVKGNLDKYSLLKFVRSNQGTCYNQRPIVSVGDEVVKGEILADGPSMELGELALGRNVMVGFMTWDGYNYEDAIIMSERLVKDDVYTSIHIEEYESEARDTKLGPEEITRDIPNVGEDALRNLDDRGIIRIGAEVKDGDLLVGKVTPKGVTELTAEERLLHAIFGEKAREVRDTSLRVPHGGGGIIHDVKVFNREDGDELPPGVNQLVRVYIVQKRKISEGDKMAGRHGNKGVISKILPEEDMPYLPDGTPIDIMLNPLGVPSRMNIGQVLELHMGMAARYLGIHIASPVFDGAREEDVWETLEEAGMSRDAKTVLYDGRTGEPFDNRVSVGIMYMIKLAHMVDDKLHARSTGPYSLVTQQPLGGKAQFGGQRFGEMEVWALEAYGAAYTLQEILTVKSDDVVGRVKTYEAIVKGDNVPEPGVPESFKVLIKELQSLGMDVKILSGDEEEIEMRDLEDEEDAKQADGLALSGDEEPEETASADVERDVVTKE
partner: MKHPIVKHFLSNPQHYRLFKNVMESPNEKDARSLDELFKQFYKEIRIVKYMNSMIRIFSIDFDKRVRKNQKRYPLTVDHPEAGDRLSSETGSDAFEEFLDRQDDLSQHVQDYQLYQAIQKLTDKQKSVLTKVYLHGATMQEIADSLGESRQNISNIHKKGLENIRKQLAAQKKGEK
B2: Sigma-O factor regulatory protein RsoA (Bacillus subtilis), C0H3R4 (parent)
chain: MDGQFEQKKKQKDETYDIEHLIACFSPMIRKKLSNTSYQEREDLEQELKIKMFEKADMLLCQDVPGFWEFILYMVDENS

Variants of: B1
Settings: with sigo_bacsu sigO

Row | Variant | effect of a mutation on the interaction
1 | F865K | decreasing interaction
2 | I864K | disrupting interaction

Variants of: B2
Settings: with rpoc_bacsu rpoC

Row | Variant | effect of a mutation on the interaction
3 | R41A | decreasing interaction
4 | L44E | decreasing interaction strength
5 | Q46E | decreasing interaction strength
6 | Q46A | decreasing interaction strength
7 | D43A | decreasing interaction strength
8 | D43N | decreasing interaction strength
9 | L44A | decreasing interaction strength

Reference: IntAct's records for PubMed 19940246
